Data from publication PMC9898259, “Cryo-EM structure supports a role of AQP7 as a junction protein” (Nature Communications, 2023).

Target: the molecule itself
Test: cryo-EM structure; single-particle cryo-EM; 1 mg/mL AQP7 in GDN on Quantifoil Cu R1.2/1.3 holey carbon grids, 4 °C; octamer = dimer of tetramers; D4 (2.55 Å) and C1 (3.0 Å) reconstructions

B1: Human aquaglyceroporin 7 (AQP7), full-length, C-terminal poly-histidine tag (natural protein, UniProt O14520 1-342, looked up)
chain: MVQASGHRRSTRGSKMVSWSVIAKIQEILQRKMVREFLAEFMSTYVMMVFGLGSVAHMVLNKKYGSYLGVNLGFGFGVTMGVHVAGRISGAHMNAAVTFANCALGRVPWRKFPVYVLGQFLGSFLAAATIYSLFYTAILHFSGGQLMVTGPVATAGIFATYLPDHMTLWRGFLNEAWLTGMLQLCLFAITDQENNPALPGTEALVIGILVVIIGVSLGMNTGYAINPSRDLPPRIFTFIAGWGKQVFSNGENWWWVPVVAPLLGAYLGGIIYLVFIGSTIPREPLKLEDSVAYEDHGITVLPKMGSHEPTISPLTPVSVSPANRSSVHPAPPLHESMALEHF
notes: Aquaporin-7 (aquaglyceroporin 7), human, full-length gene; residues 25-277 modelled in the 2.55 Å map; Tetramers that pair into an octamer (dimer of tetramers) in the cryo-EM structure; only ~47% of all particles were in the octamer class; also called human AQP7; source: P. pastoris GS115 aqy1Δ::HIS4 agp1Δ::NatMX, purified (Ni-NTA, size-exclusion chromatography) in GDN
Question: How did the “stoichiometry N” value turn out when B1 was run?
Answer: 8
